Molecular target: T1, CS-1 (human, UniProt Q9NQ25 23-335)
T1 sequence (looked up): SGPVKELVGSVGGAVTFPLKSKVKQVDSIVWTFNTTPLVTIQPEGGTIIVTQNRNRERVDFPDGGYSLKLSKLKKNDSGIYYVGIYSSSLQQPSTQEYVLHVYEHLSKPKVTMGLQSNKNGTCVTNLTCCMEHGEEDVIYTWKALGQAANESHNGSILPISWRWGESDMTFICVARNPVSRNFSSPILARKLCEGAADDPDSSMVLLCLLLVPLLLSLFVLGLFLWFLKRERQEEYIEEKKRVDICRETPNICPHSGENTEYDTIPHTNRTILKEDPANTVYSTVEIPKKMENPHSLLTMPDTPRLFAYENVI
Assay: cell-based or functional assay

B1: anti-CS-1 tri-specific cytotoxic lymphocytes engager (TriCLE) (bispecific antibody)
chain: QVQLVESGGGLVKPGGSLRLSCAASGFTFSSYGMHWVRQAPGKGLEWVAFIRYDGSNKYYADSVKGRFTISRDNSKNTLYLQMNSLRAEDTAVYYCAKDRGLGDGTYFDYWGQGTTVTVSSGGGGSGGGGSGGGGSQSALTQPASVSGSPGQSITISCSGSSSNIGNNAVNWYQQLPGKAPKLLIYYDDLLPSGVSDRFSGSKSGTSAFLAISGLQSEDEADYYCAAWDDSLNGPVFGGGTKLTVLPSGQAGAAASESLFVSNHAYKLELKTGAGFTLPTSYHQQCYYVALDEAQVNSITFTFDTGSGSGTFRDPVGTYRYSASYILLKPSQGPKQQYWAVGTIVDQSAKCTISVRDGVSTSMSKQSQTMVIDGGGGSGGGGSGGGGSSVTVSTGQGWYDMARTAIMTSRACYYVASDESTPSSLQMYATSSSKDVTLTAKDKFKQNLRTESDSPHIMGIWELGQGPRQKVWNMWYTTFSYGSAKCSLKVSAGPRVLEAGPQQLQVQSHHHHHH
  EC50 of cytotoxicity of TriCLE-activated PBMCs against H929: 1.2 nM
  EC50 of cytotoxicity of TriCLE-activated PBMCs against MM1.s: 0.003 nM
  EC50 of cytotoxicity of TriCLE-activated PBMCs against RPMI-8226: 1.8 nM

— US20180237519A1 (OHIO STATE INNOVATION FOUNDATION, published 2018)
